Reference: the supplement of paper PMC11780869

Test system: Bacillus subtilis
Assay: cleaved RNA product abundance (RNA/gDNA barcode ratio) relative to median wild-type variant (ratio to wild type); higher = more accumulation of the downstream cleavage product
Conditions: experiment (reporter, strain, medium): exp 8a: truncated aprE reporter, strain BJT201 with 2% xylose (RNase J1 expressed); cleavage site: glnRA (positions -5 to +31 mutated)
How it was run: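 Truncated aprE or tetM reporter mRNAs with barcoded RNase Y cleavage-site windows, mutagenized from oligos at a 9% error rate, sat in the B. subtilis chromosome. Cells grew in LB at 37°C from OD600 0.0003 to 0.3. Gel-selected cleaved RNA was reverse transcribed and its barcodes sequenced with those from genomic DNA, collapsing by UMI. Cleaved product abundance equals the RNA:gDNA barcode ratio per construct over the median construct with the unmutated site.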

| Sequence | cleaved RNA product abundance |
| --- | --- |
| CGACATGTCCCGCTTCTTTCATTAATCCGTTATCAACTGTTTTGATATATACATTTACCTTTTAAGAGGAGGAAT | 0.26 |
| CGACATGTCCCGCTTCTTTCATTAATCCGTTATCAACTGTTTTGCAATATACATTTACCTTTTAAGAGGAGGAAT | 0.266 |
| CGACATGTCCCGCTTCTTTCATTAATCCGTTATCAACTGTTTTGCCATATACATTTACCTTTTAAGAGGAGGAAT | 0.145 |
| CGACATGTCCCGCTTCTTTCATTAATCCGTTATCAACTGTTTTGCGATATACATTTACCTTTTAAGAGGAGGAAT | 0.168 |
| CGACATGTCCCGCTTCTTTCATTAATCCGTTATCAACTGTTTTGCTAAATACATTTACCTTTTAAGAGGAGGAAT | 0.237 |
| CGACATGTCCCGCTTCTTTCATTAATCCGTTATCAACTGTTTTGCTATAAACATTTACCTTTTAAGAGGAGGAAT | 0.182 |
| CGACATGTCCCGCTTCTTTCATTAATCCGTTATCAACTGTTTTGCTATACACATTTACCTTTTAAGAGGAGGAAT | 0.27 |
| CGACATGTCCCGCTTCTTTCATTAATCCGTTATCAACTGTTTTGCTATAGACATTTACCTTTTAAGAGGAGGAAT | 0.206 |
| CGACATGTCCCGCTTCTTTCATTAATCCGTTATCAACTGTTTTGCTATATAAATTTACCTTTTAAGAGGAGGAAT | 0.243 |
| CGACATGTCCCGCTTCTTTCATTAATCCGTTATCAACTGTTTTGCTATATACAATTACCTTTTAAGAGGAGGAAT | 0.276 |
| CGACATGTCCCGCTTCTTTCATTAATCCGTTATCAACTGTTTTGCTATATACAGTTACCTTTTAAGAGGAGGAAT | 0.286 |
| CGACATGTCCCGCTTCTTTCATTAATCCGTTATCAACTGTTTTGCTATATACATATACCTTTTAAGAGGAGGAAT | 0.348 |
| CGACATGTCCCGCTTCTTTCATTAATCCGTTATCAACTGTTTTGCTATATACATTAACCTTTTAAGAGGAGGAAT | 0.283 |
| CGACATGTCCCGCTTCTTTCATTAATCCGTTATCAACTGTTTTGCTATATACATTCACCTTTTAAGAGGAGGAAT | 0.214 |
| CGACATGTCCCGCTTCTTTCATTAATCCGTTATCAACTGTTTTGCTATATACATTGACCTTTTAAGAGGAGGAAT | 0.253 |
| CGACATGTCCCGCTTCTTTCATTAATCCGTTATCAACTGTTTTGCTATATACATTTAACTTTTAAGAGGAGGAAT | 0.291 |
| CGACATGTCCCGCTTCTTTCATTAATCCGTTATCAACTGTTTTGCTATATACATTTACATTTTAAGAGGAGGAAT | 0.366 |

| Sequence | cleaved RNA product abundance |
| --- | --- |
| CGACATGTCCCGCTTCTTTCATTAATCCGTTATCAACTGTTTTGCTATATACATTTACCATTTAAGAGGAGGAAT | 0.269 |
| CGACATGTCCCGCTTCTTTCATTAATCCGTTATCAACTGTTTTGCTATATACATTTACCTTTTAAGAGGAGGAAT | 0.298 |
| CGACATGTCCCGCTTCTTTCATTAATCCGTTATCAACTGTTTTGCTATATACATTTACGTTTTAAGAGGAGGAAT | 0.376 |
| CGACATGTCCCGCTTCTTTCATTAATCCGTTATCAACTGTTTTGCTATATACATTTATCTTTTAAGAGGAGGAAT | 0.347 |
| CGACATGTCCCGCTTCTTTCATTAATCCGTTATCAACTGTTTTGCTATATACATTTCCCTTTTAAGAGGAGGAAT | 0.124 |
| CGACATGTCCCGCTTCTTTCATTAATCCGTTATCAACTGTTTTGCTATATACATTTGCCTTTTAAGAGGAGGAAT | 0.223 |
| CGACATGTCCCGCTTCTTTCATTAATCCGTTATCAACTGTTTTGCTATATACATTTTCCTTTTAAGAGGAGGAAT | 0.122 |
| CGACATGTCCCGCTTCTTTCATTAATCCGTTATCAACTGTTTTGCTATATACTTTTACCTTTTAAGAGGAGGAAT | 0.295 |
| CGACATGTCCCGCTTCTTTCATTAATCCGTTATCAACTGTTTTGCTATATAGATTTACCTTTTAAGAGGAGGAAT | 0.418 |
| CGACATGTCCCGCTTCTTTCATTAATCCGTTATCAACTGTTTTGCTATATATATTTACCTTTTAAGAGGAGGAAT | 0.288 |
| CGACATGTCCCGCTTCTTTCATTAATCCGTTATCAACTGTTTTGCTATATCCATTTACCTTTTAAGAGGAGGAAT | 0.136 |
| CGACATGTCCCGCTTCTTTCATTAATCCGTTATCAACTGTTTTGCTATATGCATTTACCTTTTAAGAGGAGGAAT | 0.135 |
| CGACATGTCCCGCTTCTTTCATTAATCCGTTATCAACTGTTTTGCTATATTCATTTACCTTTTAAGAGGAGGAAT | 0.246 |
| CGACATGTCCCGCTTCTTTCATTAATCCGTTATCAACTGTTTTGCTATTTACATTTACCTTTTAAGAGGAGGAAT | 0.111 |
| CGACATGTCCCGCTTCTTTCATTAATCCGTTATCAACTGTTTTGCTGTATACATTTACCTTTTAAGAGGAGGAAT | 0.192 |
| CGACATGTCCCGCTTCTTTCATTAATCCGTTATCAACTGTTTTGCTTTATACATTTACCTTTTAAGAGGAGGAAT | 0.202 |
